Measured values published in US20030165463.

Molecular target: Cre recombinase (Bacteriophage P1?) (UniProt P06956)
Experiment: cell_activity
Conditions: pCA36 + pBHGloxΔE1,3 in 293Cre4 cells; 15 in 293 cells, homologous recombination background only

UniProt P06956, sequence (P06956 whole entry): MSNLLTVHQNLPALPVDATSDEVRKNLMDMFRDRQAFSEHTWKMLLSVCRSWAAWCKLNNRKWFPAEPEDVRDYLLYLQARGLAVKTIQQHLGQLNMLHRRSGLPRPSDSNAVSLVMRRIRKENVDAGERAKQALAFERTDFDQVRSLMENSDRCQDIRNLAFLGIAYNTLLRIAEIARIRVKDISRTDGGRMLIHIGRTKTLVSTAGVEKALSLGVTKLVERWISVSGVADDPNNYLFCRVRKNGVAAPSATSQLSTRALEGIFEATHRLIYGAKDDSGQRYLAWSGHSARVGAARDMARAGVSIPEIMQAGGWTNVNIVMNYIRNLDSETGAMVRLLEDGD

Substance: shuttle plasmid pCA36 without loxP
- activity (total plaques in 6 dishes): 10
